Laboratory results taken from paper PMC10810282.

How the values were obtained:
[1] = molecular target: separate RPA2 WH-domain (pTYB12-WH), recombinant; test: MST; 100 nM target labelled on cysteines (RED-…), concentration gradient of unlabelled ligand; Monolith NT.115, premium coated capillaries, 40% MST power; 50 mM Tris-HCl pH 7.5, 100 mM NaCl, 1 mM DTT, 0.05% Tween-20, 0.5 mg/ml BSA; KD from at least three runs
[2] = molecular target: mouse UNG2 wild type, recombinant (mUNG2-pET28a) (mouse) (UniProt P97931); test: as above

Row | Kd [1] [µM] | Kd [2] [µM] | Substance
1 | 0.86 | – | mouse UNG2 wild type, recombinant (mUNG2-pET28a) (from UniProt P97931-1 1-306) (domain or fragment)
2 | – | 1.26 | separate RPA2 WH-domain (pTYB12-WH), recombinant
